Data on one substance can be found in US20260184814A1, “BROADLY NE[…] INFLUENZA NEURAMINIDASE” (priority 2022, published 2026).

In experiment [1] the target is N2 A/HongKong/2671/2019 N245S (Influenza A virus (H3N2)).
Experiment [2] addresses N2 A/Switzerland/8060/2017 N245S (Influenza A virus (H3N2)).
In experiment [3] the target is N2 A/Tanzania/205/2010 S245N 247T (Influenza A virus (H3N2)).

Usually Kd stands for a measure of binding affinity in units of concentration. A lower Kd goes with tighter binding.

As to 1G01 Fab, the Kd is 375 nM in experiment [1], 398 nM in experiment [2] and below 0.02 nM in experiment [3].
